In paper PMC7997048:

Tests used:
[1] = target: ephrin-B2-Fc (extracellular region of murine ephrin-B2, Fc fusion) (murine) (UniProt P52800); assay: SEC; Superdex 200 FPLC of the EphB6-ECD/ephrin-B2 complex, micromolar concentration range
[2] = target: ephrin-B2-Fc (extracellular region of murine ephrin-B2, Fc fusion) (murine) (UniProt P52800); assay: BLI; BLItz instrument; Protein-A biosensor loaded with 50 ug/ml purified Fc-tagged ephrin-B2, washed with HBS; EphB6-ECD at 100 nM and 1 uM, association and dissociation 3 min each; apparent Kd
ephrin-B2 (Homo sapiens) = ephrin-B2 (Homo sapiens) (UniProt P52799); conditions: cited from earlier work
Sequence of UniProt P52799 (P52799 28-229): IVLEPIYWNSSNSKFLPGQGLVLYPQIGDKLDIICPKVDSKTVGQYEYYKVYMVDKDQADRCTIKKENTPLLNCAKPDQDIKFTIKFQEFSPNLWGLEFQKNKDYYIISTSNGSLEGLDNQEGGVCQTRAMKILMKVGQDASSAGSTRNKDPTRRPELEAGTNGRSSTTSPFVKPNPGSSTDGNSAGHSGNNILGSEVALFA

Substance | stoichiometry N [1] | Kd [2] [nM] | Kd (ephrin-B2 (Homo sapiens)) [nM]
EphB6 receptor ectodomain (EphB6-ECD) (from UniProt O15197 32-594) (domain or fragment) | 1 | 88.5 | –
EphB2 (from UniProt P29323) | – | – | 8.6
